Test results from publication PMC8484547, “The NAM/ATAF1/2/CUC2 transcription factor PpNAC.A59 enhances PpERF.A16 expression to promote ethylene biosynthesis during peach fruit ripening”.

Molecular target: PpERF.A16::HIS (Prunus persica? (peach), UniProt A0A251PUJ2 1-382)
Test: BLI; response rises with protein concentration; BLI: PBS (1.4 mM KH2PO4, 2.7 mM KCl, 4.3 mM Na2HPO4, 137 mM NaCl, 0.02% Tween-20, pH 7.2), temperature not stated; EMSA: 5 mM MgCl2, 2.5% glycerol, 0.05% NP-40, 1 mg (so in the source) poly(dI-dC), 200 nM probe, 1 ug protein in 20 ul, 20 min, room temperature
Conditions: protein: recombinant; tags: HIS, trigger factor fusion (pCold-TF); label: biotin

Chain of PpERF.A16::HIS (A0A251PUJ2 entry or part of it): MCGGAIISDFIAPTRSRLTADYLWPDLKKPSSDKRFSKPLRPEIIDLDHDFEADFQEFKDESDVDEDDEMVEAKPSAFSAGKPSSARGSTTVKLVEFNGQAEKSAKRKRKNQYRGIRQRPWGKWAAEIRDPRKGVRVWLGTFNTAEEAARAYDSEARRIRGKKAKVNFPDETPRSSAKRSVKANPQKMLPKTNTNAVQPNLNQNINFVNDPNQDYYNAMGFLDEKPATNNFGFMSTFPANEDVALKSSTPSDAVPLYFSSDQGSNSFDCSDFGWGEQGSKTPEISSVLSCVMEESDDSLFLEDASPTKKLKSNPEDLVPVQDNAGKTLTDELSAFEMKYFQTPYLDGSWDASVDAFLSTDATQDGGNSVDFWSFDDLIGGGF

B1: PpendoPGM promoter probe(s) (dsDNA)
DNA 1: CGTAAGGTCATTACGGCGCCGTTTCCCTTTTTAATTGGCG
DNA 2: CGCCAATTAAAAAGGGAAACGGCGCCGTAATGACCTTACG
  binding result: binds

B2: PpACS1 promoter probe (dsDNA)
DNA 1: ACACCATCTCAACCATTGCCCCCACAATTGATAGCTTGC
DNA 2: GCAAGCTATCAATTGTGGGGGCAATGGTTGAGATGGTGT
  binding result: binds

B3: PpACO1 promoter probe(s) (dsDNA)
DNA 1: AGTCAAAAGCTTTCGGCGTCAAGATTCCATTG
DNA 2: CAATGGAATCTTGACGCCGAAAGCTTTTGACT
  binding result: binds
